According to patent US20240336686A1 (ELPISCIENCE SUZHOU BIOPHARMA, published 2024):
Numbering of substitutions follows the chain as printed. Names may count otherwise.

Tests used:
[1] = target: Full length human SIRPα v1 with beta-gal fragment (ED) at its C-terminal, in K562 cells (human, UniProt P78324 31-504); assay: cell-based or functional assay
Human SIRPα v2 = target: T1, Human SIRPα v2 (human); assay: SPR (Biacore), 1:1 binding model
T1 construct: also called human SIRPα v2 (antigen of the Biacore assay)
Method: The humanized antibodies were characterized for binding affinity against human SIRPα v1, human SIRPα v2 using Surface Plasmon Resonance technology (Biacore system). The association and dissociation curves were fit with 1:1 binding model, and the Ka/Kd/KD values for each antibody were calculated.

[2] = target: T2, human SIRPα v1 on CHOK1 cells (human, UniProt P78324 31-504); assay: FACS, CHOK1 cells stably expressing human SIRPα v1
T2 construct: whole, on cells; also called CHOK1-hSIRPα v1; cell surface human SIRPα v1

[3] = target: T3, human SIRPα v2 on CHOK1 cells (human, UniProt P78324 31-504); assay: FACS, CHOK1 cells stably expressing human SIRPα v2
T3 construct: whole, on cells; also called CHOK1-hSIRPα v2; cell surface human SIRPα v2

[4] = target: T4, human SIRPα v1 ECD recombinant protein (human, UniProt P78324 31-373); assay: competitive ELISA, plate-coated human SIRPα v1 ECD; blocked ligand: mFc tagged human CD47 ECD
T4 construct: extracellular domain; Coated on the ELISA plate
Method: (§1) Competitive ELISA assay was used to determine whether the purified chimeric antibodies can block CD47 and SIRPα interaction. Briefly, antibody and mFc tagged human CD47 ECD recombinant protein were co-incubated with ELISA microplate coated human SIRPα v1 ECD or human SIRPα v2 ECD recombinant protein. The concentration of soluble ECD of CD47 is 25 nM, and the concentration of soluble ECD of SIRPα is 20 nM. After washing, HRP labeled anti-mouse Fc 2nd antibody (Sigma) was added and incubated at 37° C. for 1 hour. Then, 100 μl/well of TMB solution (Biotechnology) was added. After incubation for 15 minutes at room temperature, the reaction was stopped by the addition of 50 μl of 1N HCl. OD 450 nm was read. Blocking ratio was determined by blockade of human SIRPα ECD recombinant protein binding to ELISA microplate coated human CD47 ECD recombinant protein. All antibodies as tested can block interaction between human CD47 and different human SIRPα variants.
(§2) The humanized antibodies were tested for the ability to block CD47 and SIRPα interaction with competitive ELISA assay (refer to methods described above).

[5] = target: T5, human SIRPα v2 ECD recombinant protein (human); assay: competitive ELISA, plate-coated human SIRPα v2 ECD; blocked ligand: mFc tagged human CD47 ECD
T5 construct: extracellular domain; Coated on the ELISA plate
Method: as §1, §2

[6] = target: T6, human Claudin18.2 protein (Octet assay) (human, UniProt P56856-2 1-261, limits assumed); assay: Octet; antibody on sensor, Claudin18.2 protein in solution
T6 construct: UniProt P56856 isoform A2 corresponds to Claudin18.2; also called CLDN18.2
T6 sequence (looked up): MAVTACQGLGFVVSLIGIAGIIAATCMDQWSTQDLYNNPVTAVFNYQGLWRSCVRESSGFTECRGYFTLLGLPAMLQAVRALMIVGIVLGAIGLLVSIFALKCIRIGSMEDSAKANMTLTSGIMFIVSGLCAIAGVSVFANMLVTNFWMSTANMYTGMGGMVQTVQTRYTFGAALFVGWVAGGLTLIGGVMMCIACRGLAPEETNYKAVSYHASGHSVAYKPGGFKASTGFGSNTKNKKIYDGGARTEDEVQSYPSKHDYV
Method: (§3) The Anti-Claudin18.2/SIRPα bispecific protein were characterized for binding affinity against human Claudin18.2 or SIRPα using Octet assay (ForeBio) according to manufacturer's manual, separately. Briefly, the antibodies were coupled on sensors and then the sensors were dipped into Claudin18.2 or SIRPα protein gradients (start at 200 nM, with 2-fold dilution and totally 8 doses). Their binding responses were measured in real-time and results were fit globally.

[7] = target: human PDL1 protein (Octet assay) (human, UniProt Q9NZQ7 19-238); assay: Octet; antibody on sensor, PDL1 protein in solution
Method: as §3, with “Anti-PDL1/SIRPα” for “Anti-Claudin18.2/SIRPα”, “PDL1” for “Claudin18.2 or SIRPα”

Sequence of human PDL1 protein (Octet assay) (Q9NZQ7 19-238 limits assumed): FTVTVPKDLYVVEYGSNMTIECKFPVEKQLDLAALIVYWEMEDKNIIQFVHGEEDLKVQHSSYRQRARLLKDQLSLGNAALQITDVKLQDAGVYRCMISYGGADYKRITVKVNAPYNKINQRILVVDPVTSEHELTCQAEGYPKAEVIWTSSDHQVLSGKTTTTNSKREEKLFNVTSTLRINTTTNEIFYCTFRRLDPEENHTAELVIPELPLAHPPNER
T4 sequence (P78324 31-373): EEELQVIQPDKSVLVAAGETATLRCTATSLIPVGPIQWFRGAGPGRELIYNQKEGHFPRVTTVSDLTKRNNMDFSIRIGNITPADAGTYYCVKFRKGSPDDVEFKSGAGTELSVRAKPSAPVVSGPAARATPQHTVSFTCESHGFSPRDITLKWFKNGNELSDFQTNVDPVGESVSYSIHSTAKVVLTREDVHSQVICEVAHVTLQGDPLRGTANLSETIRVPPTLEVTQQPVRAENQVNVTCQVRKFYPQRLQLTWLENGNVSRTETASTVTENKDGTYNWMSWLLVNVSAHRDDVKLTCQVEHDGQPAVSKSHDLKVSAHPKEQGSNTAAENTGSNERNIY
Sequence of Full length human SIRPα v1 with beta-gal fragment (ED) at its C-terminal, in K562 cells (P78324 31-504): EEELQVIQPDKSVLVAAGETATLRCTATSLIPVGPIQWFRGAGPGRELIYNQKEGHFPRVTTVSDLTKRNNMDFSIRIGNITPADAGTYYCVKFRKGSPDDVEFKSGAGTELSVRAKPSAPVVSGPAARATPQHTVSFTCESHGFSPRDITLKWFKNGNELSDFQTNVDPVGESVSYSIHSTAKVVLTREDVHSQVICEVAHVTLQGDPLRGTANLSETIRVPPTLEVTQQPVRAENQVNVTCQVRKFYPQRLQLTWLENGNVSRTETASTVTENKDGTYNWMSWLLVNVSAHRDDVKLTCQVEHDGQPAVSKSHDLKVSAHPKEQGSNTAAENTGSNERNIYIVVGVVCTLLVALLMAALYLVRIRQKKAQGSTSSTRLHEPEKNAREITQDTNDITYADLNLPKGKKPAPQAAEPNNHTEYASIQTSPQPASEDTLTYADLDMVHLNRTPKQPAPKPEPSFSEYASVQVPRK
T2 sequence (P78324 31-504): as above
T3 sequence (P78324 other isoform, or with tags, fused parts or gaps limits assumed): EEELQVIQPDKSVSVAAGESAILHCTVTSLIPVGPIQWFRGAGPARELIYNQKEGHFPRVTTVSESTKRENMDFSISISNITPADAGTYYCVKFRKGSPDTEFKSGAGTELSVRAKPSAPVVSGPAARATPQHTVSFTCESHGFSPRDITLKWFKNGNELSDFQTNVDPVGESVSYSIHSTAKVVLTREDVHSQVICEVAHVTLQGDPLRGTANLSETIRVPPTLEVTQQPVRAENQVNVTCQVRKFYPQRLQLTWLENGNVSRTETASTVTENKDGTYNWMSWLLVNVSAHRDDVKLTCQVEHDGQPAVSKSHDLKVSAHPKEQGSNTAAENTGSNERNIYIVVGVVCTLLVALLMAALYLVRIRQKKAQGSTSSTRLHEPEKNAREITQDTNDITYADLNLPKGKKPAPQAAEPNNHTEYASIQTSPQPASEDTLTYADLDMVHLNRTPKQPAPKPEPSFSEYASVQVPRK

B1: Humanized anti-SIRPα antibody hu025.021 (antibody, V domains shown)
VH: EVQLVQSGAEVKKPGATVKISCKVSGFNIKDYYMHWVQQAPGKGLEWIGRIDPEDAETKYAPKFQGRVTITADTSTNTAYMELSSLRSEDTAVYYCDRGLAYWGQGTLVTVSS
VL: EIVLTQSPATLSLSPGERATLSCSASSSVSSSYLYWYQQKPGQAPKLWIYSTSNLASGIPARFSGSGSGTDYTLTISSLEPEDFAVYYCHQWSSYPYTFGQGTKLEIK
notes: Humanized from C25
For B1, the “IC50 (SHP-1 recruitment blocking)” value [1] was 0.1 nM, the “TOP blocking (SHP-1 recruitment)” value [1] was 86.3% and the Kd (Human SIRPα v2) was 3.39 nM. The koff (Human SIRPα v2) was 0.0056 s⁻¹, the kon (Human SIRPα v2) was 1.65e+06 M⁻¹ s⁻¹ and the EC50 [2] was 1.08 nM. The “TOP MFI” value [2] was 56400 MFI, the EC50 [3] was 0.87 nM and the “TOP MFI” value [3] was 46400 MFI. For the same binder, the IC50 [4] was 2.07 nM, the TOP blocking [4] was 97.7% and the IC50 [5] was 1.96 nM. The TOP blocking [5] was 98.3%.

B2: Humanized anti-SIRPα antibody hu025.033 (antibody, V domains shown)
VH: B1 VH with N77D
VL: B1 VL
notes: Humanized from C25
For B2, the “IC50 (SHP-1 recruitment blocking)” value [1] was 0.19 nM, the “TOP blocking (SHP-1 recruitment)” value [1] was 84.5% and the EC50 [2] was 0.99 nM. For the same binder, the “TOP MFI” value [2] was 53800 MFI, the EC50 [3] was 0.62 nM and the “TOP MFI” value [3] was 39800 MFI. For the same binder, the IC50 [4] was 2.22 nM, the TOP blocking [4] was 97.2% and the IC50 [5] was 1.88 nM. The TOP blocking [5] was 98.3%.

B3: Humanized anti-SIRPα antibody hu025.059 (antibody, V domains shown)
VH: B1 VH with V24A
VL: B1 VL
notes: Humanized from C25
In the case of B3, the “IC50 (SHP-1 recruitment blocking)” value [1] is reported as 0.1 nM, the “TOP blocking (SHP-1 recruitment)” value [1] is reported as 78.8% and the Kd (Human SIRPα v2) is reported as 2.76 nM. For the same binder, the koff (Human SIRPα v2) was 0.00392 s⁻¹, the kon (Human SIRPα v2) was 1.42e+06 M⁻¹ s⁻¹ and the EC50 [2] was 1.05 nM. For the same binder, the “TOP MFI” value [2] was 59400 MFI, the EC50 [3] was 0.75 nM and the “TOP MFI” value [3] was 47300 MFI. For the same binder, the IC50 [4] was 2.48 nM, the TOP blocking [4] was 97.1% and the IC50 [5] was 2.03 nM. The TOP blocking [5] was 98.3%.

B4: Anti-Claudin18.2 antibody hu28.H1L2 (antibody, V domains shown)
VH: QVQLVQSGAEVKKPGASVKVSCKASGYTFTNWVHWVRQAPGQGLEWMGEINPTNARSNYNEKFKKRVTMTRDTSTSTVYMELSSLRSEDTAVYYCARIYYGNSFAHWGQGTLVTVSS
VL: DIVMTQSPDSLAVSLGERATINCKSSQSLLNAGNQKNYLTWYQQKPGQPPKLLIYWSSTRESGVPDRFSGSGSGTDFTLTISSLQAEDVAVYHCQNNYYYPLTFGGGTKLEIK
notes: Humanized monoclonal antibody; also called Anti-Claudin18.2, hu28.H1L2
B4 was tested, and the Kd [6] was < 1 pM, the koff [6] was < 1e-07 s⁻¹ and the kon [6] was 95800 M⁻¹ s⁻¹.

B5: Anti-Claudin18.2/SIRPα bispecific antibody ES028-001 (bispecific antibody)
light (part 1 of 2): B4 VL
light (part 2 of 2): GGGGSGGGGSGGGGSQIVLTQSPAIMSASPGEKVTLTCSASSSVSSSYLYWYQQKPGSSPKLWIYSTSNLASGVPARFSGSGSGTSYSLTISSMEAEDAASYFCHQWSSYPYTFGGGTKLEIKGGGGSGGGGSGGGGSGGGGSEVQLQQSGAELVKPGASVKLSCTASGFNIKDYYMHWVKQRTEQGLEWIGRIDPEDGETKYAPKFQGKATITADTSSNTAYLQLSSLTSEDTAVYYCDRGLAYWGQGTLVTVSA
heavy: B4 VH
notes: not shown: CL; CH1-Fc
For B5, the Kd [6] was < 1 pM, the koff [6] was < 1e-07 s⁻¹ and the kon [6] was 105000 M⁻¹ s⁻¹.

B6: Anti-Claudin18.2/SIRPα bispecific antibody ES028-005 (bispecific antibody)
light: B4 VL
heavy (part 1 of 2): B4 VH
heavy (part 2 of 2): B5 light (part 2 of 2)
notes: not shown: CL; CH1-Fc
With B6 the Kd [6] was < 1 pM, the koff [6] was < 1e-07 s⁻¹ and the kon [6] was 106000 M⁻¹ s⁻¹.

B7: Anti-Claudin18.2/SIRPα bispecific antibody ES028-009 (bispecific antibody)
light (part 1 of 2): QIVLTQSPAIMSASPGEKVTLTCSASSSVSSSYLYWYQQKPGSSPKLWIYSTSNLASGVPARFSGSGSGTSYSLTISSMEAEDAASYFCHQWSSYPYTFGGGTKLEIK
light (part 2 of 2): GGGGSGGGGSGGGGSDIVMTQSPDSLAVSLGERATINCKSSQSLLNAGNQKNYLTWYQQKPGQPPKLLIYWSSTRESGVPDRFSGSGSGTDFTLTISSLQAEDVAVYHCQNNYYYPLTFGGGTKLEIKGGGGSGGGGSGGGGSGGGGSQVQLVQSGAEVKKPGASVKVSCKASGYTFTNWVHWVRQAPGQGLEWMGEINPTNARSNYNEKFKKRVTMTRDTSTSTVYMELSSLRSEDTAVYYCARIYYGNSFAHWGQGTLVTVSS
heavy: EVQLQQSGAELVKPGASVKLSCTASGFNIKDYYMHWVKQRTEQGLEWIGRIDPEDGETKYAPKFQGKATITADTSSNTAYLQLSSLTSEDTAVYYCDRGLAYWGQGTLVTVSA
notes: not shown: CL; CH1-Fc
In the case of B7, the Kd [6] is reported as < 1 pM, the koff [6] is reported as < 1e-07 s⁻¹ and the kon [6] is reported as 21100 M⁻¹ s⁻¹.

B8: Anti-Claudin18.2 antibody hu26.H1L2 (S92A) (antibody, V domains shown)
VH: EVQLLESGGGLVQPGGSLRLSCAASGFTLSSYALSWVRQAPGKGLEWVSYISNLGGSTFYPDTVKGRFTISRDNSKNTLYLQMNSLRAEDTAVYYCAKHLYNYDAFASWGQGTLVTVSS
VL: DIQLTQSPSFLSASVGDRVTITCRASSSVNYIHWYQQKPGKAPKALIYATSNLASGVPSRFSGSGSGTEYTLTISSLQPEDFATYYCQQWNANPLTFGQGTKLEIK
notes: Humanized monoclonal antibody; also called Anti-Claudin18.2, hu26.H1L2 (S92A)
For B8, the Kd [6] was 1810 pM, the koff [6] was 6.25e-05 s⁻¹ and the kon [6] was 34500 M⁻¹ s⁻¹.

B9: Anti-PDL1 antibody C570 (antibody, V domains shown)
VH: EVQLVESGGGLVQAGGSLRLSCAASGFTFSSHAMSWVRQAPGKGLEWVSDIDTSGTTTDYADSVKGRFTISRDNAKNTLYLQMNSLKPEDTAVYYCAKGPREATDIRSWGQGTQVTVSS
notes: Heavy chain antibody; also called Anti-PDL1, C570
With B9 the Kd [7] was 0.374 nM, the koff [7] was 0.000306 s⁻¹ and the kon [7] was 819000 M⁻¹ s⁻¹.

B10: Anti-PDL1 antibody 570h3 (antibody, V domains shown)
VH: B9 VH with A14P, A75S, K87R, P88A, Q114T
notes: Humanized heavy chain antibody; also called Anti-PDL1, 570h3
Binder B10 has a Kd [7] of 0.198 nM, a koff [7] of 9.29e-05 s⁻¹ and a kon [7] of 470000 M⁻¹ s⁻¹.

B11: Anti-PDL1/SIRPα bispecific antibody ES019-025 (bispecific antibody)
light: B7 light (part 1 of 2)
heavy (part 1 of 2): EVQVVESGGGLVQSGGSLKLSCAGSGFTESAGFMVWHRQVPGKERELVALIATPSGSTNYADSVKGRFTISRDNGKNTVYLQMNSLKPEDTAVYYCNIRGYWGQGTLVTVSS
heavy (part 2 of 2): B7 heavy
notes: not shown: CL; linker; CH1-Fc
B11 gave a Kd [7] of 3.81 nM, a koff [7] of 0.00604 s⁻¹ and a kon [7] of 1.58e+06 M⁻¹ s⁻¹.

B12: Anti-PDL1/SIRPα bispecific antibody ES019-029 (bispecific antibody)
chain 1: B11 heavy (part 1 of 2)
chain 2: B7 heavy
chain 3: B7 light (part 1 of 2)
Work on B12 yielded a Kd [7] of 1.23 nM, a koff [7] of 0.00136 s⁻¹ and a kon [7] of 1.11e+06 M⁻¹ s⁻¹.

B13: Anti-PDL1/SIRPα bispecific antibody ES019-079 (bispecific antibody)
light: B7 light (part 1 of 2)
heavy (part 1 of 2): B9 VH
heavy (part 2 of 2): GGGGSGGGGSGGGGSEVQLQQSGAELVKPGASVKLSCTASGFNIKDYYMHWVKQRTEQGLEWIGRIDPEDGETKYAPKFQGKATITADTSSNTAYLQLSSLTSEDTAVYYCDRGLAYWGQGTLVTVSA
notes: not shown: CL; linker and Fc; CH1
Work on B13 yielded a Kd [7] of 0.0485 nM, a koff [7] of 2.85e-05 s⁻¹ and a kon [7] of 588000 M⁻¹ s⁻¹.
